Experimental data taken from patent US5770717.

Target: activation domain-fused yeast RPB4 protein (RPB4 in JG4-5) (yeast (Saccharomyces cerevisiae)) (UniProt P20433)
Assay: two-hybrid interaction trap in yeast, beta-galactosidase assay with and without activation domain-fused RPB4

## LexA-RPB7 fusion protein (yeast RPB7) (from UniProt P34087)
  degree of enhancement of activation (beta-galactosidase assay): 60 fold
